Results on 84 variants are retold here after the RNAGym collection of RNA variant scans (doi:10.1073/pnas.2313332121).

The chains are these.
B1: TPR 5TU (parent)
chain: GGAUCUUCUCGAUCUAACAAAAAAGACAAAUCUGCCACAAAGCUUGAGAGCAUCUUCGGAUGCAGAGGCGGCAGCCUUCGGUGGCGCGAUAGCGCCAACGUUCUCAACUAUGACACGCAAAACGCGUGCUCCGUUGAAUGGAGUUUAUCAUG

Fewer inactive variants are shown than the library holds.

In this data set the parent is B1. Put plainly: polymerase ribozyme fitness, log enrichment relative to wild type (log ratio); higher = more active; in vitro selection for triplet polymerase activity. The method, boiled down:
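Mutant libraries of both subunits of a heterodimeric triplet polymerase ribozyme were PCR-built, transcribed, and selected once in triplicate, with frozen incubation at −7 °C and capture of gel-excised extended constructs on streptavidin beads before RT-PCR. Illumina sequencing of input and output libraries was filtered to genotypes with ≥10 input reads and ≥1 read per output. Fitness is the logarithm of genotype enrichment over wild-type enrichment, using inverse-variance-weighted replicate averages. The logarithm is base 2.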
As for G81C A89C A98U A107U U144C, the “polymerase ribozyme fitness (log ratio)” value is not above -4.2.

In the case of U82G A107U, the “polymerase ribozyme fitness (log ratio)” value is -2.6.

Take G81C G117C G143U: the “polymerase ribozyme fitness (log ratio)” value is -4.1.

As to C76U C85G A121U U148C, the “polymerase ribozyme fitness (log ratio)” value is -2.83.

On to C79U G80C C85U C93U, for which the “polymerase ribozyme fitness (log ratio)” value was not above -4.2.

For the variant G80U G94A C96A U101A C149A, the “polymerase ribozyme fitness (log ratio)” value was not above -4.2.

Regarding G81C C93G A113C C116U G117A C129A, the “polymerase ribozyme fitness (log ratio)” value is not above -4.2.

As for U82A C93U A110G, the “polymerase ribozyme fitness (log ratio)” value is -4.09.

Regarding G83C A113U U145C, the “polymerase ribozyme fitness (log ratio)” value was -3.3.

For the variant G83C G124A A137G, the “polymerase ribozyme fitness (log ratio)” value is -1.97.

C79U C87A C96U A98C G141C: the “polymerase ribozyme fitness (log ratio)” value was not above -4.2.

U77G C87U G88A G140C A142G: the “polymerase ribozyme fitness (log ratio)” value was not above -4.2.

C76A G92U: the “polymerase ribozyme fitness (log ratio)” value was -2.07.

With C79A C93U A119G G133C, the “polymerase ribozyme fitness (log ratio)” value was not above -4.2.

With G80A C105U, the “polymerase ribozyme fitness (log ratio)” value was 0.692.

Take G83U A91U A120U A138U: the “polymerase ribozyme fitness (log ratio)” value is not above -4.2.

Take G83A U101G U135C C149A: the “polymerase ribozyme fitness (log ratio)” value is not above -4.2.

Consider G81C C85A A142G, for which the “polymerase ribozyme fitness (log ratio)” value was -1.69.

With U82G G88C C93U C95G, the “polymerase ribozyme fitness (log ratio)” value was not above -4.2.

As for G81U A98U C116A, the “polymerase ribozyme fitness (log ratio)” value was determined as 0.542.

Regarding G74C C99U, the “polymerase ribozyme fitness (log ratio)” value was not above -4.2.

Regarding U82C A89C C96U U101G A115C, the “polymerase ribozyme fitness (log ratio)” value was -1.01.

As to C79G G124A, the “polymerase ribozyme fitness (log ratio)” value is -3.82.

With G83A G136A, the “polymerase ribozyme fitness (log ratio)” value was -0.0141.

For the variant G74C U130A, the “polymerase ribozyme fitness (log ratio)” value was not above -4.2.

As for U82A G83A A98G U127C, the “polymerase ribozyme fitness (log ratio)” value is -3.36.

Take C75U A113U G124U U144C: the “polymerase ribozyme fitness (log ratio)” value was not above -4.2.

Consider C75A C129G U146C, for which the “polymerase ribozyme fitness (log ratio)” value was not above -4.2.

Consider U82G A91U C114A A119U A121C G133C, for which the “polymerase ribozyme fitness (log ratio)” value is not above -4.2.

For the variant C75U A110C U146G, the “polymerase ribozyme fitness (log ratio)” value was not above -4.2.

C76A A137U: the “polymerase ribozyme fitness (log ratio)” value is -3.9.

As to G80C G128C, the “polymerase ribozyme fitness (log ratio)” value is -3.87.

On to U82G C85G G92C C114A, for which the “polymerase ribozyme fitness (log ratio)” value is not above -4.2.

Regarding U82A G88A A115U A121U, the “polymerase ribozyme fitness (log ratio)” value is not above -4.2.

Regarding C75A C116U, the “polymerase ribozyme fitness (log ratio)” value was not above -4.2.

For G80U A119C C123A, the “polymerase ribozyme fitness (log ratio)” value is -1.18.

As to G80A U82G, the “polymerase ribozyme fitness (log ratio)” value amounted to 0.0436.

U82A A107C: the “polymerase ribozyme fitness (log ratio)” value was -3.72.

Take G83C G140U: the “polymerase ribozyme fitness (log ratio)” value is -4.01.

For the variant G83A G117C, the “polymerase ribozyme fitness (log ratio)” value is -0.0387.

In the case of G81C C93A, the “polymerase ribozyme fitness (log ratio)” value was -2.57.

Take G81C C93G: the “polymerase ribozyme fitness (log ratio)” value was -3.69.

Turning to G81C G112A A137U U148A, the “polymerase ribozyme fitness (log ratio)” value was not above -4.2.

For the variant C75G G81A A122G, the “polymerase ribozyme fitness (log ratio)” value was not above -4.2.

On to A73U G81A C118G A120U U135A, for which the “polymerase ribozyme fitness (log ratio)” value is -3.75.

As to G83A A121G U145G U148G, the “polymerase ribozyme fitness (log ratio)” value is not above -4.2.

For C79A G88A G133U G140A, the “polymerase ribozyme fitness (log ratio)” value was not above -4.2.

In the case of G81U C125A, the “polymerase ribozyme fitness (log ratio)” value was -0.8.

Regarding C76A G92C A98U A142U, the “polymerase ribozyme fitness (log ratio)” value is -2.32.

On to G81A A97G A115G, for which the “polymerase ribozyme fitness (log ratio)” value is -0.993.

For the variant C79U U102C, the “polymerase ribozyme fitness (log ratio)” value was not above -4.2.

U78A C93A G94U G140A G143A: the “polymerase ribozyme fitness (log ratio)” value is not above -4.2.

U78G C79A C108U: the “polymerase ribozyme fitness (log ratio)” value was not above -4.2.

On to C76U G83A, for which the “polymerase ribozyme fitness (log ratio)” value is -0.0654.

Turning to C76A A91G A120G, the “polymerase ribozyme fitness (log ratio)” value is -3.67.

Take U82G G92C A106G C116U U135C A150G: the “polymerase ribozyme fitness (log ratio)” value was not above -4.2.

With C75U A113C, the “polymerase ribozyme fitness (log ratio)” value is -3.87.

Regarding G80C C87G C103G G143C, the “polymerase ribozyme fitness (log ratio)” value is not above -4.2.

As for U82C C95U, the “polymerase ribozyme fitness (log ratio)” value is -1.92.

For C79A C93A, the “polymerase ribozyme fitness (log ratio)” value is -4.12.

With U82C U90G, the “polymerase ribozyme fitness (log ratio)” value is not above -4.2.

For the variant C75A C79G C93A, the “polymerase ribozyme fitness (log ratio)” value was -4.11.

As for C79U G100A A115C, the “polymerase ribozyme fitness (log ratio)” value is -1.13.

Turning to G81A U104G C105A G136C U146C, the “polymerase ribozyme fitness (log ratio)” value is not above -4.2.

In the case of U82A C96A A110G A137G, the “polymerase ribozyme fitness (log ratio)” value is -3.99.

Consider C75U A89G, for which the “polymerase ribozyme fitness (log ratio)” value was -0.933.

In the case of C75G C85A C103U A107G A122C, the “polymerase ribozyme fitness (log ratio)” value was not above -4.2.

As to U77C U111A C131A, the “polymerase ribozyme fitness (log ratio)” value is not above -4.2.

Consider U82A G86C, for which the “polymerase ribozyme fitness (log ratio)” value was -2.69.

In the case of G83C C99G, the “polymerase ribozyme fitness (log ratio)” value was -3.88.

On to C76A G84U A121G A122G U146A, for which the “polymerase ribozyme fitness (log ratio)” value was -3.68.

On to G83U C85A, for which the “polymerase ribozyme fitness (log ratio)” value is -3.55.

In the case of U82A C108U, the “polymerase ribozyme fitness (log ratio)” value is -2.39.

As to G83C U101A, the “polymerase ribozyme fitness (log ratio)” value is -1.07.

Regarding G83A C87U A106C C125G G152A, the “polymerase ribozyme fitness (log ratio)” value is -3.25.

In the case of G83U C93G A121U, the “polymerase ribozyme fitness (log ratio)” value was not above -4.2.

For G80C C85A G94C C132U G141U U148C, the “polymerase ribozyme fitness (log ratio)” value was not above -4.2.

As to U82G A89C A98G A142C, the “polymerase ribozyme fitness (log ratio)” value is -1.56.

Regarding G80C C85U, the “polymerase ribozyme fitness (log ratio)” value was -3.96.

Consider C76G U144A, for which the “polymerase ribozyme fitness (log ratio)” value was not above -4.2.

Take C75U G84A U135A: the “polymerase ribozyme fitness (log ratio)” value is -0.996.

As to G81A G84A, the “polymerase ribozyme fitness (log ratio)” value is -0.338.

For G83A C125U, the “polymerase ribozyme fitness (log ratio)” value is -1.29.

As to G80C G81C C96A U134A, the “polymerase ribozyme fitness (log ratio)” value was not above -4.2.
